Test results published in patent publication US20100260765A1 (AstraZeneca / MedImmune, published 2010).

Assays:
[1] = target: T1, whole KDR-ECD (Cat. # 676490, Calbiochem) (human, UniProt P35968 20-764); test: ELISA, KDR-ECD coat 5 ug/mL, antibody 0.01 ug/mL
T1 construct: extracellular domain; Bought soluble protein; also called soluble KDR; VEGF Receptor 2 D1-7
Description: (§1) The cross-reactivity of purified antibodies was tested against KDR mouse ortholog KDR mouse ortholog (mouse VEGFR2, or Flk-1) and human VEGFR1 (Flt-1). The ability of the antibodies to bind soluble KDR Ig4-7 domain and to the entire KDR extracellular domain (ECD) was also measured.
(§2) Cross-reactivity experiments were carried out and measured using an ELISA based assay as described in Example 6. […] Antibody controls included IgG1 and IgG4 (Sigma-Aldrich, Cat. #15154 and #14639, respectively).

[2] = target: T2, human KDR (human, UniProt P35968 20-1356); test: cell-based or functional assay
[3] = target: T2, human KDR; test: cell-based or functional assay; remark: listed apart in the source
[4] = target: T3, mouse KDR (Flk-1)/Fc (Cat. #443-KD/CF, R&D Systems, Inc.) (mouse, UniProt P35918 20-762); test: ELISA, Flk-1 coat 5 ug/mL, antibody 0.1 ug/mL
T3 construct: Bought reagent; also called mouse VEGFR2; KDR mouse ortholog; not shown: Fc of the bought fusion protein
Description: as §1, §2

[5] = target: T2, human KDR; test: FACS competition on 293T/human KDR transfectants; antibody 5 ug/mL first, then competitor VEGF165 50 ng/mL; inhibition of VEGF binding
Description: (§3) Transfected cells were then seeded at 50,000 cells/well and incubated with 5 μg/mL of candidate antibody for one hour at 4° C. […] After washing, the cells were incubated with Cy5-conjugated rabbit anti-goat antibody plus 7AAD for 15 minutes at 4° C.

[6] = target: T4, soluble KDR Ig4-7 domain (human, UniProt P35968 328-764); test: ELISA, KDR Ig4-7 coat (1:1 diln.), antibody 1 ug/mL
T4 construct: domain: Ig4-7 domain; also called b-KDRIg4-7-myc-his; Ig4-7 domain of KDR; not shown: myc-his tag of the pSecTag construct
Description: as §1, §2

[7] = target: T4, soluble KDR Ig4-7 domain; test: ELISA, KDR Ig4-7 coat (1:1 diln.), antibody 0.1 ug/mL
Description: as §1, §2

[8] = target: T1, whole KDR-ECD (Cat. # 676490, …); test: ELISA, KDR-ECD coat 5 ug/mL, antibody 1 ug/mL
Description: as §1, §2

[9] = target: T5, cynomolgus KDR (cynomolgus monkey, UniProt A0A2K5VE63 20-1356); test: FACS on Cyno KDR/293T transfectants, antibody 5 ug/mL
T5 construct: whole, on cells; also called Cyno KDR
Description: The binding of purified antibodies to cell-bound cynomolgus KDR (with parental cells as negative control) was tested by FACS analysis in this assay.
Cynomolgus KDR was cloned in 3 pieces. One piece was PCR amplified from cynomolgus lung cDNA, and the remaining two pieces were PCR amplified from cynomolgus kidney cDNA. The three PCR products were inserted into pCR3.1 Bid vector. […] Transfected cells were seeded at 50,000 cells/well and incubated with 5 μg/mL of candidate antibody for one hour at 4° C. The cells were then washed and incubated with secondary antibody (Cy5-conjugated goat anti-human antibody, or Cy5-conjugated rabbit anti-goat antibody, plus 7-Amino-Actinomycin (7AAD)) for 15 minutes at 4° C. Binding between cynomolgus KDR and purified antibody was detected by FACS analysis.

[10] = target: T2, human KDR; test: FACS competition on 293T/human KDR transfectants; antibody 5 ug/mL first, then competitor VEGF165 50 ng/mL; bound VEGF165 detected
Description: as §3

[11] = target: T2, human KDR; test: FACS titration of purified antibody on HUVEC cells (FACS Kd)
Description: The binding affinities of the purified antibodies for endogenously-expressed KDR in HUVEC cells was measured. HUVEC cells were seeded at 150,000 cells/well and incubated with titrations of purified antibody for 4 hours at 4° C. The cells were then washed and incubated with goat anti-human IgG-Fc-Cy5+5 μg/mL 7-Amino-Actinomycin (7AAD) for 30 minutes at 4° C. Bound KDR was detected using FACS analysis.

[12] = target: T1, whole KDR-ECD (Cat. # 676490, …); test: ELISA, KDR-ECD coat 5 ug/mL, antibody 0.1 ug/mL
Description: as §1, §2

[13] = target: T3, mouse KDR (Flk-1)/Fc (Cat. #443-KD/CF, …); test: ELISA, Flk-1 coat 5 ug/mL, antibody 1 ug/mL
Description: as §1, §2

[14] = target: T4, soluble KDR Ig4-7 domain; test: ELISA, KDR Ig4-7 coat (1:1 diln.), antibody 0.01 ug/mL
Description: as §1, §2

[15] = target: T3, mouse KDR (Flk-1)/Fc (Cat. #443-KD/CF, …); test: ELISA, Flk-1 coat 5 ug/mL, antibody 0.01 ug/mL
Description: as §1, §2

[16] = target: T2, human KDR; test: cell-based or functional assay; remark: listed apart in the source

T3 sequence (P35918 20-762 limits assumed): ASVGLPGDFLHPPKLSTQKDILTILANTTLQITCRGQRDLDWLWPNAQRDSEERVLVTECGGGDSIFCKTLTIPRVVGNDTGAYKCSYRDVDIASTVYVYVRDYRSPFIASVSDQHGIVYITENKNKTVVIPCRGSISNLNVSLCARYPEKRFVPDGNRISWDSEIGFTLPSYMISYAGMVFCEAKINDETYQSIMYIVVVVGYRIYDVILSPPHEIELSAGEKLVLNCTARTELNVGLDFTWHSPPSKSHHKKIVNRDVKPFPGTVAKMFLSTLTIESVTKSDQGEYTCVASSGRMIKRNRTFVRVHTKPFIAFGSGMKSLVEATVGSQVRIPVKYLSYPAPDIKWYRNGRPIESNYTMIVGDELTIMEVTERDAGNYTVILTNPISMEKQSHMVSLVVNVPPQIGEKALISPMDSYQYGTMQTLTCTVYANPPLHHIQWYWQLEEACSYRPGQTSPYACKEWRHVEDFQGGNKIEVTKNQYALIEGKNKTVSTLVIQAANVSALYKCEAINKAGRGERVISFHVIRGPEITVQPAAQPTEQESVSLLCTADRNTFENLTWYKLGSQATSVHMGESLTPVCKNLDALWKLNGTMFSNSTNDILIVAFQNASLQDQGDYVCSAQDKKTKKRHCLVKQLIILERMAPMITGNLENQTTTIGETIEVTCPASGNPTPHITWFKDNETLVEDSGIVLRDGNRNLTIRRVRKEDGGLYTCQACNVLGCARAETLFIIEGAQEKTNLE
T5 sequence (A0A2K5VE63 entry or part of it): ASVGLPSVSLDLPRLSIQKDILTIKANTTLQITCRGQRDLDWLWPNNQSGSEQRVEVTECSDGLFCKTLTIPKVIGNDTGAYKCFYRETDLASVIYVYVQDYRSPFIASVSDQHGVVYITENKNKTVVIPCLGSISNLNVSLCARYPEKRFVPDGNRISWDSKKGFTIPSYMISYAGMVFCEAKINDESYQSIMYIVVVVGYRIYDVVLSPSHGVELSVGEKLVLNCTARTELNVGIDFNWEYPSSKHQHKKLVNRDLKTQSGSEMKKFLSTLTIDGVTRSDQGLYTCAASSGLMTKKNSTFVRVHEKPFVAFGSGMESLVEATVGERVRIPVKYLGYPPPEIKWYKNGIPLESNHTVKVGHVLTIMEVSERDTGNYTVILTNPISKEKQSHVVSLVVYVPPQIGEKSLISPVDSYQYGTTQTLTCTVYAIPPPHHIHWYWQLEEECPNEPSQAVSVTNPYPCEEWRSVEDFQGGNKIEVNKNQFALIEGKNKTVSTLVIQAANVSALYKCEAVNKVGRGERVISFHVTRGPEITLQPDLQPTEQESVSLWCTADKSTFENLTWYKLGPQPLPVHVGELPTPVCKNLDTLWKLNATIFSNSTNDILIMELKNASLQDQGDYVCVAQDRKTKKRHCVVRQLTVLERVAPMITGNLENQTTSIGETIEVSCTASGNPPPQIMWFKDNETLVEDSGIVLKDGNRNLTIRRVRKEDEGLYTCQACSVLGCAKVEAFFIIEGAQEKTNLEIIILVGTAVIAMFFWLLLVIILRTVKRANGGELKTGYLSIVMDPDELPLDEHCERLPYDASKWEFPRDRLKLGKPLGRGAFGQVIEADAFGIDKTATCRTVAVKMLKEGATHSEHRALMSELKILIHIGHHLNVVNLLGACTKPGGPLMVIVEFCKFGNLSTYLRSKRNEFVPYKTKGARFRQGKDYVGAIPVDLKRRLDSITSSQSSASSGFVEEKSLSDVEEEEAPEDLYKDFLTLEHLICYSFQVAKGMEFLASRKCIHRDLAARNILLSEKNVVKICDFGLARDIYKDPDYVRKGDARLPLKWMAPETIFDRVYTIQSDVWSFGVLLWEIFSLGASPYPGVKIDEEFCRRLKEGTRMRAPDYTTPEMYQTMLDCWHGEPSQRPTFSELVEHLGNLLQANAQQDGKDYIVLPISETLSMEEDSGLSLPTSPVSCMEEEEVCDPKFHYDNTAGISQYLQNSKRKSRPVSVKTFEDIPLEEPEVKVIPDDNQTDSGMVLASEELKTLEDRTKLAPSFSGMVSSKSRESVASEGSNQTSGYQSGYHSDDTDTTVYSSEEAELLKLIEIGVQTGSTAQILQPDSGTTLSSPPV
T2 sequence (P35968 20-1356): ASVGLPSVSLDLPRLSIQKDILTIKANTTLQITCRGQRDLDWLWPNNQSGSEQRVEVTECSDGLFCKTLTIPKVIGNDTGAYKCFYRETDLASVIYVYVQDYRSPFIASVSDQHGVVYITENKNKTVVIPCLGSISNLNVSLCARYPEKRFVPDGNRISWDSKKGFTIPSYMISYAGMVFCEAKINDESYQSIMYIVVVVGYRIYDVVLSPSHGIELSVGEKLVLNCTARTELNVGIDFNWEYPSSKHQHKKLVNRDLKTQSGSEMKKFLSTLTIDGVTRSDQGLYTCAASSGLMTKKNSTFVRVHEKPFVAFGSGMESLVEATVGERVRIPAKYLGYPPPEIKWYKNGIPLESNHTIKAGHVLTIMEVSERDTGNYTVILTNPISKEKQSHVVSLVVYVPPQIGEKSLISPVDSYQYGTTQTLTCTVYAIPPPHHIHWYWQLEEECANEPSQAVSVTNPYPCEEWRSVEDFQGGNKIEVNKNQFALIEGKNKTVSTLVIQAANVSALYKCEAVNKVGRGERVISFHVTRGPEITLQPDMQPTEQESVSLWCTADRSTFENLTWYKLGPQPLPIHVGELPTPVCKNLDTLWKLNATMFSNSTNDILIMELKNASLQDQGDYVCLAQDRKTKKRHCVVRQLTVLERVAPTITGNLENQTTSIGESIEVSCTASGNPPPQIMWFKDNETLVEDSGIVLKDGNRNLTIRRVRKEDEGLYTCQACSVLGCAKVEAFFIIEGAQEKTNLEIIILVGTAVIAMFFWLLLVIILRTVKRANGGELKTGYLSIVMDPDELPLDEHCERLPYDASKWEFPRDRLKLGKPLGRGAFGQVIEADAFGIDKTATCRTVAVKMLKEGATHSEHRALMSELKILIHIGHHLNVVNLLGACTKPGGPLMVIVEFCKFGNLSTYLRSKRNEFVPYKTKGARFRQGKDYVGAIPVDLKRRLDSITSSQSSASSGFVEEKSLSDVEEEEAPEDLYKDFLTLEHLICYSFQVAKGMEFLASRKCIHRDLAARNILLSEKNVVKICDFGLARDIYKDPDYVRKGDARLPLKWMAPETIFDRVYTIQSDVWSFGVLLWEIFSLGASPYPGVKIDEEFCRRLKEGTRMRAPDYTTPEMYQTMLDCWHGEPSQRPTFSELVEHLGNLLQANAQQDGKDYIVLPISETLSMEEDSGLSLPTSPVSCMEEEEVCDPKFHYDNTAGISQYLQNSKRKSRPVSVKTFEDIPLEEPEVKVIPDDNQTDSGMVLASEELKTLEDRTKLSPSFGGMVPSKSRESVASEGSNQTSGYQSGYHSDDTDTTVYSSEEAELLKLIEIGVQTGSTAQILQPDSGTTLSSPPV
T4 sequence (P35968 328-764): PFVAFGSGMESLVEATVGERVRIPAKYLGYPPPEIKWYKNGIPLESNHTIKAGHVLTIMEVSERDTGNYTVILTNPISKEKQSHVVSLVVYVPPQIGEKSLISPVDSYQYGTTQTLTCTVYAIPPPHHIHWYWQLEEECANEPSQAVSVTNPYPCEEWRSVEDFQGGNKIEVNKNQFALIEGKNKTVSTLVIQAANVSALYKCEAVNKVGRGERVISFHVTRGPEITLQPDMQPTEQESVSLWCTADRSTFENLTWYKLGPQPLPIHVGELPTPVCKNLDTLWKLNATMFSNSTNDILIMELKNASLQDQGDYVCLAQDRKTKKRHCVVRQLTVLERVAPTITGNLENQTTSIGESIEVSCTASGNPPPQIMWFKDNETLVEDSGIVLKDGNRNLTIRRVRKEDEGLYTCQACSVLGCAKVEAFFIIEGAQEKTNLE
T1 sequence (P35968 20-764): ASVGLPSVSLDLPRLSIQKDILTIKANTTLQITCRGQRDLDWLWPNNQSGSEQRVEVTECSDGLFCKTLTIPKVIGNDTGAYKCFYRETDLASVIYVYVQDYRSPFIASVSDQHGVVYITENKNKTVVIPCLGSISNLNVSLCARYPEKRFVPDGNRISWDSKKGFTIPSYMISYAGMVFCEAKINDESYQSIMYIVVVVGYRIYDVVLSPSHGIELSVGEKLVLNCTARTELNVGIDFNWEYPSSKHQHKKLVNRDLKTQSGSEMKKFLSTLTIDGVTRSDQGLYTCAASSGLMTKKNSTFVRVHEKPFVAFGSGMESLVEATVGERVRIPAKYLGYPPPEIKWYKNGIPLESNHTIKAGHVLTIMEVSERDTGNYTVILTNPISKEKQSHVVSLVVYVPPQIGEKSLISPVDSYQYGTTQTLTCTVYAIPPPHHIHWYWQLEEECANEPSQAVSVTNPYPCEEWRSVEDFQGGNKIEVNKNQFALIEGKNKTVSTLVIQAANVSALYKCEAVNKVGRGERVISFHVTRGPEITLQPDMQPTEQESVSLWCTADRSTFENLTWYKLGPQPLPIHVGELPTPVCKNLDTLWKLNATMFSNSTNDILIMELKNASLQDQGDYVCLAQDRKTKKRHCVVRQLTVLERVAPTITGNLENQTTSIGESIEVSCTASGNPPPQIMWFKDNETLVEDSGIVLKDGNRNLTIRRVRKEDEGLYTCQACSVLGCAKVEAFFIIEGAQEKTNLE

Binder	ELISA reading [1]	HUVEC survival, Maximum Inhibition at 50 nM (% Inhibition), Average [2]	HUVEC survival, Maximum Inhibition at 50 nM (% Inhibition), N = 1 [2]	HUVEC survival, Maximum Inhibition at 50 nM (% Inhibition), N = 2 [2]	KDR tyrosine phosphorylation in HUVEC, EC50 (nM), Average [3]	KDR tyrosine phosphorylation in HUVEC, EC50 (nM), N = 1 [3]	KDR tyrosine phosphorylation in HUVEC, EC50 (nM), N = 2 [3]	KDR tyrosine phosphorylation in HUVEC, Maximum Inhibition at 100 nM (% Inhibition), Average [3]	KDR tyrosine phosphorylation in HUVEC, Maximum Inhibition at 100 nM (% Inhibition), N = 1 [3]	KDR tyrosine phosphorylation in HUVEC, Maximum Inhibition at 100 nM (% Inhibition), N = 2 [3]	% Inhibition [5]	ELISA reading [6]	ELISA reading [7]	ELISA reading [8]	FACS Geometric Mean Fluorescence [9]	FACS Geometric Mean Fluorescence (bound VEGF165) [10]	Kd [11]	ELISA reading [12]	ELISA reading [14]	6-keto Prostaglandin F1α release, EC50 (nM), Average [16]	other results
27D10 (antibody, V domains shown, Fully human monoclonal antibody from a XenoMouse hybridoma (IgG2 or IgG4 strain), purified) VH: QLQLQESGPGLVKPSETLSLTCTVSGGSISSRSDYWGWIRQPPGKGLEWIGTIYYSGSTFYNPSLKSRVTISVDTSKNQFSLKLSSVTAADTAVYYCARQQLVLYYFDYWGQGTLVTVSS VL: not shown	0.087	89%	93%	85%	1.9 nM	1.6 nM	2.3 nM	72%	70%	75%	15%	0.076	0.086	1.36	89.4	111	1.9 nM	0.187	0.073	–	ELISA reading [4]: 1.48; ELISA reading [13]: 2.14; ELISA reading [15]: 0.537
27A3 (antibody, V domains shown, Fully human monoclonal antibody from a XenoMouse hybridoma (IgG2 or IgG4 strain), purified) VH: QLQLQESGPGLVKPSETLSLTCTVSGGSISSRSDYWGWIRQPPGKGLEWIGTIYYSGDTYYNPSLKSRVTISVDTSKNQFSLKLSSVTAADTAVYYCARQQLVLYYFDYWGQGTLVTVSS VL: EIVLTQSPGTLSLSPGERATLSCRASQSVSSSYLAWYQQKPGQAPRLLIYATSNRATGIPDRFSGSGSGTDFTLTISRLEPEDFAVYYCQQHGSSPPLTFGGGTKVEIK	0.093	95%	95%	94%	3.1 nM	3.4 nM	2.9 nM	78%	77%	79%	9%	0.078	0.075	1.97	89.7	118	5.4 nM	0.111	0.08	5.6 nM	6-keto Prostaglandin F1α release, EC50 (nM), N = 1 [16]: 5.5 nM; 6-keto Prostaglandin F1α release, EC50 (nM), N = 2 [16]: 5.7 nM; 6-keto Prostaglandin F1α release, Maximum Inhibition (% Inhibition), Average [16]: 49%; 6-keto Prostaglandin F1α release, Maximum Inhibition (% Inhibition), N = 1 (200 nM) [16]: 49%; 6-keto Prostaglandin F1α release, Maximum Inhibition (% Inhibition), N = 2 (333 nM) [16]: 49%
21H6 (antibody, V domains shown, Fully human monoclonal antibody from a XenoMouse hybridoma, purified) VH: QVQLVESGGGLVKPGGSLRLSCAASGFTFSDYYMSWIRQAPGKGLEWVSYISNSGITIYYADSVKGRFTISRDNAKNSLYLQMNSLRAGDTAVYYCAREEWYSSRWYRNFDYWGQGTLVTVSS VL: DIQMTQFSSSLSASVGDRVTITCRASQSISRYLNWYQQKPGKAPKLLIYAASSLQSGVPSRFNGSGSGTDFTLTISSLQPEDFATYYCQQSYSAPLTFGGGTKVEIK	0.087	96%	96%	96%	6.9 nM	7.1 nM	6.7 nM	82%	81%	84%	-3%	0.087	0.074	1.46	102	133	17.9 nM	0.139	0.074	6.3 nM	6-keto Prostaglandin F1α release, EC50 (nM), N = 1 [16]: 7.3 nM; 6-keto Prostaglandin F1α release, EC50 (nM), N = 2 [16]: 5.4 nM; 6-keto Prostaglandin F1α release, Maximum Inhibition (% Inhibition), Average [16]: 77%; 6-keto Prostaglandin F1α release, Maximum Inhibition (% Inhibition), N = 1 (200 nM) [16]: 80%; 6-keto Prostaglandin F1α release, Maximum Inhibition (% Inhibition), N = 2 (333 nM) [16]: 75%
32G7 (antibody, V domains shown, Fully human monoclonal antibody from a XenoMouse hybridoma (IgG2 or IgG4 strain), purified) VH: EVQLVESGGGLVKPGGSLRLSCAASGFTISSYSMNWVRQAPGKGLEWVSFISSRSNYIYYADSVKGRFTISRDNAKNSLYLQMNSLRAEDTAVYYCSKDDWFEELWGQGTLVTVSS VL: DIQMTQSPSSLSASVGDRVTITCRASQDIRNDLGWYQQKPGKAPKRLIYAASSLQSGVPSRFSGSGSGTEFTLTISSLQPEDFATYYCLQHNSFPWTFGQGTKVEIK	0.103	72%	73%	72%	0.6 nM	0.6 nM	0.6 nM	73%	69%	77%	–	2.65	2.31	2.36	–	–	0.2 nM	0.307	0.933	23.1 nM	6-keto Prostaglandin F1α release, EC50 (nM), N = 1 [16]: 11.2 nM; 6-keto Prostaglandin F1α release, EC50 (nM), N = 2 [16]: 35.1 nM; 6-keto Prostaglandin F1α release, Maximum Inhibition (% Inhibition), Average [16]: 42%; 6-keto Prostaglandin F1α release, Maximum Inhibition (% Inhibition), N = 1 (200 nM) [16]: 28%; 6-keto Prostaglandin F1α release, Maximum Inhibition (% Inhibition), N = 2 (333 nM) [16]: 55%; ELISA reading [4]: 2.14; ELISA reading [13]: 2.67; ELISA reading [15]: 0.988
